This is an account of results in article doi:10.1101/2020.07.09.195545.

Like-named read-outs stand apart in the source and are kept apart here.

Data set [1] addresses T1, rLCRF-SBP (Chlamydomonas reinhardtii, UniProt A0A2K3E5K7 866-1032). Description: EMSA. On the technique in general: In EMSA bound probe runs differently from free probe, usually more slowly.
The target of data set [2] is T1, rLCRF-SBP. Description: EMSA. The source holds these as a separate data set.

B1: mutated GTAC-consensus 30 bp (shuffled core) (dsDNA)
DNA 1: GTCGCCACTGCGAGATCCACTGAGAGATCG
DNA 2: CGATCTCTCAGTGGATCTCGCAGTGGCGAC
For the molecule B1, in the data set with rLCRF-SBP [1], the binding result is “no binding”.

B2: GTAC-consensus 30 bp (dsDNA)
DNA 1: GTCGCCGTACCGAGATCCGTACAGAGATCG
DNA 2: CGATCTCTGTACGGATCTCGGTACGGCGAC
In the case of B2, the binding result with rLCRF-SBP [2] is “binds”.
